Measured values from the supplement of paper PMC9170038.

Tested on: MS2 coat protein
Test: apparent KD of MS2 coat protein; designed switch direction (-1 OFF switch, 1 ON switch): -1; higher = weaker reporter binding
Method in brief: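 For each design, the apparent KD is the median over clusters of curves fitted to normalised cluster fluorescence. Clusters held RNA switches with common flanks, transcribed on Illumina chips by stalled E. coli RNA polymerase. These were titrated with SNAP-549-labelled MS2 coat protein, doubling from 0.7 or 1.5 nM to 3 µM, without input, with 200 uM small-molecule ligand, or with an oligonucleotide input.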

[1] = input ligand: microRNA oligo, concentration not stated
[2] = Eterna round: R95, input ligand: FMN 200 uM
[3] = Eterna round: R95, input ligand: microRNA oligo, concentration not stated
[4] = Eterna round: R95, input ligand: none

For “CACCGUUAUGGAGGAUAUCGUACAUGAGGAUCACCCAUGUAAUAAAUGAGAAUUUCGGAUGUAUGCGAGAAGGCCAAAAUCGGC [Ostracism 43 - Jieux - Exclusion NG 2] (Eterna round: R96, puzzle: Exclusion NG 2)”, the “apparent KD of MS2 coat protein” value (input ligand: FMN 200 uM) was 0.0466 µM, the “apparent KD of MS2 coat protein” value [1] was 0.0269 µM and the “apparent KD of MS2 coat protein” value (input ligand: none) was 0.0435 µM.

For “ACAUGAGGAUCACCCAUGUCGAGUACAUGAGGAUCACCCAUGUAGGAUAUGGUUCGCUUUGCGUGCUAGAAGGAUAUGUGAUGG [salish99_ExNG3_r04_513] (Eterna round: R96, puzzle: Exclusion NG 3)”, the “apparent KD of MS2 coat protein” value (input ligand: FMN 200 uM) was 0.396 µM, the “apparent KD of MS2 coat protein” value [1] was 0.217 µM and the “apparent KD of MS2 coat protein” value (input ligand: none) was 0.329 µM.

For “GCGUACUGAGGAUAUACAUGAGGAUCACCCAUGUGACACAGCAUUUAUUGAUAAAUUUGUAGAAGGCAGUAGGC [JR_Ex3_Sub059] (Eterna round: R97, puzzle: Exclusion 3)”, the “apparent KD of MS2 coat protein” value (input ligand: FMN 200 uM) was 0.144 µM and the “apparent KD of MS2 coat protein” value (input ligand: none) was 0.025 µM.

In the case of “ACUUAUUGAGGAUAUACAUUAAAUUACAUGAGGAUCACCCAUGUUCUUCAAUGUAUAUAUGUAGAAGGCAGAAGAA [JL-ex5-4.27 Malcolm mod] (Eterna round: R97, puzzle: Exclusion 5)”, the “apparent KD of MS2 coat protein” value (input ligand: FMN 200 uM) is reported as 0.0149 µM and the “apparent KD of MS2 coat protein” value (input ligand: none) is reported as 0.0164 µM.

For “UCCUGCUGGCGAGGAUAUCCUGUGCGGUUCCGGCUCGUGUCUGUUACAUGAGGAUCACCCAUGUGGGAGAAGGUGUCUGUGGCC [Design 98] (Eterna round: R96, puzzle: Exclusion NG 2)”, the “apparent KD of MS2 coat protein” value (input ligand: FMN 200 uM) was 0.0186 µM, the “apparent KD of MS2 coat protein” value [1] was 0.0141 µM and the “apparent KD of MS2 coat protein” value (input ligand: none) was 0.0205 µM.

“UAUUAACAAGCUUGAUCCCACAUGAGGAUCACCCAUGUGCUCGUCUUAUAAGGUACUGUGACGAAAGUCACGGUACC [Sensor 3, v1 - 86] (puzzle: Sensor v3, turn-off variant 1)” was tested, and the “apparent KD of MS2 coat protein” value [2] was 0.0899 µM, the “apparent KD of MS2 coat protein” value [3] was 0.206 µM and the “apparent KD of MS2 coat protein” value [4] was 0.0912 µM.

With “CCGGAAAUGAAGGAUAUAGGCGUCGAUAGACUCCUAGAAGGUCAUACAUGAGGAUCACCCAUGUGUCCUACCGG [Fiskers Ex 6 - 75] (puzzle: Exclusion 6)” the “apparent KD of MS2 coat protein” value [3] was 0.0147 µM.

In the case of “GGCGCCUGAGGAUAUCAGUCUGGAUCAGAAUAGAUCCUGACUGAGAAGGCACAUGAGGAUCACCCAUGUUCGCC [Eli 4x 4.28] (Eterna round: R97, puzzle: Exclusion 4)”, the “apparent KD of MS2 coat protein” value (input ligand: FMN 200 uM) is reported as 0.0164 µM and the “apparent KD of MS2 coat protein” value (input ligand: none) is reported as 0.0148 µM.

In the case of “CGUCUGUAAGGAUAUGGUUGUAUCGACAUGAGGAUCACCCAUGUGACGUGGGACUAGUGAUUAGAAGGUACGAACG [EX5 #63] (Eterna round: R97, puzzle: Exclusion 5)”, the “apparent KD of MS2 coat protein” value (input ligand: FMN 200 uM) is reported as 0.876 µM and the “apparent KD of MS2 coat protein” value (input ligand: none) is reported as 0.672 µM.

For “GGUGGGCUAGGAUAUGCUUUGGGAAGGCAUUCCUUCGAUAAACUUGAGGAUCACCCAAGUAGAAGGAGCUUGCC [salish99_ex2_r4_021] (Eterna round: R97, puzzle: Exclusion 2)”, the “apparent KD of MS2 coat protein” value (input ligand: FMN 200 uM) was 0.0213 µM and the “apparent KD of MS2 coat protein” value (input ligand: none) was 0.0136 µM.

“UGUUGUCGCGCAGGAUAUGAGGAUCACCCAUAUAAGGAUAUCGAAAGAGAAGUUCUGAGGAUCACCCAGAAGGGCGGGACAACU [pwkr exNG2 2xF5 2xFMN.32] (Eterna round: R96, puzzle: Exclusion NG 2)” was tested, and the “apparent KD of MS2 coat protein” value (input ligand: FMN 200 uM) was 0.389 µM, the “apparent KD of MS2 coat protein” value [1] was 0.0526 µM and the “apparent KD of MS2 coat protein” value (input ligand: none) was 0.0585 µM.

For “AUGGUAUUAGGAUAUACAUGAGGAUCACCCAUGUGGCAUCAUGCGGUGCCGACCUACUGUAGAAGGAGUGUAAA [Eternabot (L1) Solution 64] (Eterna round: R97, puzzle: Exclusion 3)”, the “apparent KD of MS2 coat protein” value (input ligand: FMN 200 uM) was 0.0513 µM and the “apparent KD of MS2 coat protein” value (input ligand: none) was 0.059 µM.

In the case of “AAAUAAUAGAUAAAAUAACACAUGAGGAUCACCCAUGUGCGAUGUUGAGGGUGAUACAGGCUUUUUGCUCGUCUUAU (puzzle: Sensor v3, turn-off variant 1)”, the “apparent KD of MS2 coat protein” value [2] is reported as 0.0987 µM, the “apparent KD of MS2 coat protein” value [3] is reported as 0.225 µM and the “apparent KD of MS2 coat protein” value [4] is reported as 0.132 µM.

“UAGGGUAAGUCAUGUACGAACAUGAGGAUCACCCAUGUAGCUGAAAUAAACCUCGUCCAAAUCUUUCCGUAAAAUGU [Zavein] (Eterna round: R96, puzzle: Sensor v2, turn-off variant)” was tested, and the “apparent KD of MS2 coat protein” value (input ligand: FMN 200 uM) was 0.271 µM, the “apparent KD of MS2 coat protein” value [1] was 0.211 µM and the “apparent KD of MS2 coat protein” value (input ligand: none) was 0.295 µM.

With “AGUACUAACACGUCUGUGUUAGUACAAUAAGCUUGUGAAACAUGAGGAUCACCCAUGUCCUCAUAAGCUCGUCUUAU [salish99_TOv2_r3_079] (puzzle: Sensor v3, turn-off variant 2)” the “apparent KD of MS2 coat protein” value [2] was 0.0172 µM, the “apparent KD of MS2 coat protein” value [3] was 0.749 µM and the “apparent KD of MS2 coat protein” value [4] was 0.0161 µM.

For “GCAAGCUUUUAGGUUUUCAACAUGAGGAUCACCCAUGUUCGUCUUGUGCUCGGGCUUGGGCGGUGUCCGGGUUUGGG [JL TOV1 3.75 sellena mod] (Eterna round: R97, puzzle: Sensor, turn-off variant 1)”, the “apparent KD of MS2 coat protein” value (input ligand: FMN 200 uM) was 0.0404 µM and the “apparent KD of MS2 coat protein” value (input ligand: none) was 0.0437 µM.

For “UGGCUAAGAGGAUAUACAUUGAAUAAGAUUCAUGUAAAACUACAUGAGGAUCACCCAUGUAGAAGGCUUGGCCU [Mat - Exclusion 2 - JL Mod - D72] (Eterna round: R97, puzzle: Exclusion 2)”, the “apparent KD of MS2 coat protein” value (input ligand: FMN 200 uM) was 0.0254 µM and the “apparent KD of MS2 coat protein” value (input ligand: none) was 0.0174 µM.

“CCACGACAUGAGGAUCACCCAUGUGAGGAUAUGGCCUGAAAAGCGUGAGCAGUUUUUAUCAGAAGGCGCGUGGG [salish99_ex1_r4_064_4A's4U's] (Eterna round: R97, puzzle: Exclusion 1)” was tested, and the “apparent KD of MS2 coat protein” value (input ligand: FMN 200 uM) was 0.0636 µM and the “apparent KD of MS2 coat protein” value (input ligand: none) was 0.0315 µM.

For “CCAAGCUUAUUCAUUAACCACAUGAGGAUCACCCAUGUAUAGGCAAUUAUGACUGGCCCAUCUGGUGCUCGUCUUAU [Sensor-V1 #30] (Eterna round: R97, puzzle: Sensor, turn-off variant 1)”, the “apparent KD of MS2 coat protein” value (input ligand: FMN 200 uM) was 0.017 µM and the “apparent KD of MS2 coat protein” value (input ligand: none) was 0.0159 µM.

In the case of “UUUAGUUCAGGAUAUGAUGAAUUAAACAUGAGGAUCACCCAUGUAGAUCCUGAAUUAACAUCAGAAGGGAACAUUU [JL-ex5-4.48 Brourd mod] (Eterna round: R97, puzzle: Exclusion 5)”, the “apparent KD of MS2 coat protein” value (input ligand: FMN 200 uM) is reported as 0.0418 µM and the “apparent KD of MS2 coat protein” value (input ligand: none) is reported as 0.015 µM.

In the case of “ACACAACAUGAGGAUCACCCAUGUCAGGAUAUGCAGAACAAGAACAAGACAAGACAGAGCAGAAGGGACAACAC [Ex 1 M5] (Eterna round: R96, puzzle: Exclusion 1)”, the “apparent KD of MS2 coat protein” value (input ligand: FMN 200 uM) is reported as 0.049 µM, the “apparent KD of MS2 coat protein” value [1] is reported as 0.0296 µM and the “apparent KD of MS2 coat protein” value (input ligand: none) is reported as 0.0363 µM.

In the case of “AUACACUGAGGAUAUACAUGAGGAUCACCCAUGUGGAAAGCCUCUGGCGGAACUUCGUGUAGAAGGCAGCCACG [Esatdi] (puzzle: Exclusion 3)”, the “apparent KD of MS2 coat protein” value [2] is reported as 0.018 µM, the “apparent KD of MS2 coat protein” value [3] is reported as 0.0139 µM and the “apparent KD of MS2 coat protein” value [4] is reported as 0.0134 µM.

For “CCGUGGCAAGGAUAUACAUAGGAGAGGAAGGCAAGAGGUGGACAUGAGGAUCACCCAUGUAGAAGGUGCAGAUC [JR_Exclu2_Sub027] (puzzle: Exclusion 2)”, the “apparent KD of MS2 coat protein” value [3] was 0.157 µM.

With “ACACAAGCCCUUUGCUCGUUUUAAUACAGCGGGCUCUCCACAUGAGGAUCACCCAUGUAGGCCUUGUUCCAAGGCCG [Maerarce] (puzzle: Sensor v3, turn-off variant 2)” the “apparent KD of MS2 coat protein” value [2] was 0.0226 µM, the “apparent KD of MS2 coat protein” value [3] was 0.0223 µM and the “apparent KD of MS2 coat protein” value [4] was 0.0218 µM.

“UCAUGUUUAGAGGAUAUGAUUACUCUAGAGUGAUCAGAAGGCUAGACAUGAGGAUCACCCAUGUCAGAACAUGC [Exclusion 6 - B - 17:b] (puzzle: Exclusion 6)” was tested, and the “apparent KD of MS2 coat protein” value [2] was 0.0177 µM, the “apparent KD of MS2 coat protein” value [3] was 0.0247 µM and the “apparent KD of MS2 coat protein” value [4] was 0.0319 µM.

“CCUCUAUUUGUGAGGAUAUCGAUAAAAUGGAUUGUCGAGAAGGCACAUGAGGAUCACCCAUGUAUUGAACAGCA [JR_BMEx4_Sub022] (Eterna round: R97, puzzle: Brourd's mod of Exclusion 4)” was tested, and the “apparent KD of MS2 coat protein” value (input ligand: FMN 200 uM) was 0.231 µM and the “apparent KD of MS2 coat protein” value (input ligand: none) was 0.0404 µM.

In the case of “GGCCCUAAGGUCAGAUUCACAAGCUUUUUGCUCGUUUUAACAUGAGGAUCACCCAUGUCUAGUGGAUCUGAUCCUCA [Sensor v3, turn-off variant 2 (MOD of Indiso v.2)] (puzzle: Sensor v3, turn-off variant 2)”, the “apparent KD of MS2 coat protein” value [2] is reported as 0.0216 µM, the “apparent KD of MS2 coat protein” value [3] is reported as 0.0118 µM and the “apparent KD of MS2 coat protein” value [4] is reported as 0.0201 µM.

In the case of “GGCAUAAACGAGGAUAUCGUUACGGAAACGUAACGAGAAGGUGUAACAUGAGGAUCACCCAUGUUCCUCAAGCC [Mat - Exclusion 6 - Eli Mod - D59] (puzzle: Exclusion 6)”, the “apparent KD of MS2 coat protein” value [3] is reported as 0.0289 µM.

“AAUAAUAAAGUCAGGAUAUCUAGAGCUUCGGCUCUAGAGAAGGGACAUGAGGAUCACCCAUGUCACUCAAUAAU [BmEx4/3-D1] (Eterna round: R97, puzzle: Brourd's mod of Exclusion 4)” was tested, and the “apparent KD of MS2 coat protein” value (input ligand: FMN 200 uM) was 0.0216 µM and the “apparent KD of MS2 coat protein” value (input ligand: none) was 0.0151 µM.

For “CAGUACUGAGGAUAUACAUGAGGAUCACCCAUGUGAUGUAGUGCACGCGUACGUGUACGUAGAAGGCAGUACUG [JL 3.27 m10] (Eterna round: R97, puzzle: Exclusion 3)”, the “apparent KD of MS2 coat protein” value (input ligand: FMN 200 uM) was 0.0493 µM and the “apparent KD of MS2 coat protein” value (input ligand: none) was 0.0171 µM.
